The text below walks through data of paper doi:10.1101/2020.04.06.028423 (bioRxiv, 2020).

T1: His-tagged VP35 IID (VP35 aa 215-340) (Ebola virus (EBOV), UniProt Q05127 215-340)
T1 sequence: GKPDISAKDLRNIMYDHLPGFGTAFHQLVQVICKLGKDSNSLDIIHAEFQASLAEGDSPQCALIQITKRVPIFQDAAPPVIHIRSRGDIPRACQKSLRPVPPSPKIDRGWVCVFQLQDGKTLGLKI

B1: GST-NP(412-500) (domain or fragment)
chain: ASLPKTSGHYDDDDDIPFPGPINDDDNPGHQDDDPTDSQDTTIPDVVVDPDDGSYGEYQSYSENGMNAPDDLVLFDLDEDDEDTKPVPN

The target of the assay is T1, His-tagged VP35 IID (VP35 aa 215-340). In words: pull-down.
Turning to DDLVLFDLDEDDED (domain or fragment) [GST-NP(481-494)], the binding result was “binds”. In the case of B1 it was “binds”; in that of DDLVLFDLDEDDEDTKPVPN (domain or fragment) [GST-NP(481-500)], “binds”.
